Marks after values point to notes of the source that are not given here.
Experiments:
[1] = In vivo PK in transgenic humanized FcRn mice (Tg32); settings: 0.3 mg/kg single IV, plasma; for t½: noncompartmental analysis
Experimental: In vivo PK studies were conducted in transgenic humanized FcRn mice (Tg32). For these studies, no GLP compliance was claimed.

[2] = target: cynomolgus monkey beta-Klotho; assay: SPR binding affinity and kinetics to cynomolgus monkey beta-Klotho (Biacore 8K, anti-human Fc capture); set-up: species or system Cynomolgus monkey (Macaca fascicularis); settings: 1:1 binding model, read-out: KD monkey KLB
Experimental: Binding affinity and kinetics were measured on a Biacore 8K instrument (GE Healthcare). For the affinity capture of the diluted mAb sample, an anti-human Fc antibody (human antibody capture kit, GE Healthcare) was immobilized on all eight channels of a series S CM5 sensor chip (GE Healthcare) to approximately 10.000 RU. The anti-beta-Klotho antibodies were diluted into HBS-EP+ assay buffer (GE Healthcare) to 0.04 μg/mL. The antibodies were injected in the sample compartment, whereas the reference compartment was used without captured antibody. […] For the antigen inject the flow rate was adjusted to 60 μL/min with an association time of 180 sec and a dissociation time of 1800 sec. The maximum binding signal of beta-Klotho was in the range of 30 RU. At the end of each cycle an inject of regeneration solution, supplied with human antibody capture kit (GE Healthcare), supplemented with 10% non-specific binding reducer (GE Healthcare), for 1 min at 30 μL/min to remove antibody and antigen was performed. Binding kinetics data were evaluated with a 1:1 binding model using the Biacore 8K Evaluation Software version 1.1.1.7442 (GE Healthcare).
For interaction analysis with human beta-klotho, mAbs were captured via an anti-human Fc antibody immobilized on a series S CM5 sensor chip (human antibody capture kit, GE Healthcare). […] Binding kinetics data were evaluated with a 1:1 binding model using the Biacore 8K Evaluation Software version 1.1.1.7442 (GE Healthcare). For interaction analysis with Cynomolgus monkey beta-klotho, mAbs were captured via an anti-human Fc antibody immobilized on a series S CM5 sensor chip (human antibody capture kit, GE Healthcare). […] Binding kinetics data were evaluated with a 1:1 binding model using the Biacore 8K Evaluation Software version 1.1.1.7442 (GE Healthcare). Exemplary sensorgrams for the interaction are shown in FIG. 7 (human KLB) and 8 (monkey KLB), as well as in Table G.

[3] = Capillary isoelectric focusing (cIEF); type: physicochemical
Experimental: Charge heterogeneity of the antibody samples was determined by capillary isoelectric focusing (cIEF) using a Maurice C device (Protein Simple). The samples were prepared by the cIEF protocol given by the manufacturer with an ampholyte mix 3-10 (Protein Simple) and peptide pl markers of 5.85 and 9.0 (Protein Simple). cIEF runs were analyzed using Compass Software v2.1.0 (Protein Simple).

[4] = Size-exclusion chromatography (SEC); type: physicochemical
Experimental: Analytical SEC was performed using a BioSECcurity instrument (PSS Polymer) with an AdvanceBio 300 column (4.6 mm×300 mm) and AdvanceBio 300 guard column (Agilent Technologies) at room temperature. The analysis was run at a flow rate of 0.5 mL/min using 2× concentrated D-PBS buffer (Thermo Fisher Scientific) with detection at 280 nm. 10 μL of protein sample (at 1 mg/mL) were applied onto the column. Data evaluation was performed using WinGPC software v8.1 (PSS Polymer). For estimation of the molecular weight, the SEC column was calibrated with the AdvanceBio SEC 300 Å Protein Standard (Agilent Technologies).

[5] = Capillary gel electrophoresis (cGE); type: physicochemical
Experimental: Capillary Gel Electrophoresis (cGE) Purity and size heterogeneity of the samples was determined by capillary gel electrophoresis (cGE) using a CES18000 instrument (SCIEX) equipped with a pre-assembled fused silica capillary (50 μm×300 mm, SCIEX). Protein samples at 1 mg/ml were prepared using the IgG purity heterogeneity Kit (SCIEX) under non-reducing conditions according to the manufacturer's specifications. Samples were electrophoretically separated for 35 minutes at 25° C. and the absorbance at 220 nm was recorded by a photo diode array (PDA) detector. The data were analyzed using 32 Karat Software (SCIEX).

| Substance | Kd [2] [nM] | t½ [1] [days] | Charge homogeneity cIEF % main peak [3] [%] | Charge homogeneity cIEF Number of peaks [3] | Charge homogeneity cIEF pI [3] | cIEF % Main peak ([3]; pH 5, 40° C., d 21) [%] | cIEF Number of peaks ([3]; pH 5, 40° C., d 21) | cIEF % Main peak ([3]; pH 5, d 0) [%] | cIEF Number of peaks ([3]; pH 5, d 0) | cIEF % Main peak ([3]; pH 6, 40° C., d 21) [%] | cIEF Number of peaks ([3]; pH 6, 40° C., d 21) | cIEF % Main peak ([3]; pH 6, d 0) [%] | cIEF Number of peaks ([3]; pH 6, d 0) | cIEF % Main peak ([3]; pH 8, 40° C., d 21) [%] | cIEF Number of peaks ([3]; pH 8, 40° C., d 21) | cIEF % Main peak ([3]; pH 8, d 0) [%] | cIEF Number of peaks ([3]; pH 8, d 0) | SEC % HMW ([4]; pH 5, 40° C., d 21) [%] | SEC % LMW ([4]; pH 5, 40° C., d 21) [%] | SEC % HMW ([4]; pH 5, d 0) [%] | also measured |
| --- | --- | --- | --- | --- | --- | --- | --- | --- | --- | --- | --- | --- | --- | --- | --- | --- | --- | --- | --- | --- | --- |
| Ab0429: IgG1 NNAS; 16H7 VL (N25S, D49S, D50A, D91E, N93E); 16H7 VH (M34V, I83T, D109E); HC SEQ ID NO: 42, LC SEQ ID NO: 49 | 2.2 | 13.9 | 21.3 | 9 | 7.5-8.5 | 20 | 9 | 21 | 8 | 23 | 8 | 21 | 9 | 9.7 | 10 | 21 | 8 | 1 | 2 | 2 | SEC % LMW ([4]; pH 5, d 0): 0%; SEC % HMW ([4]; pH 6, 40° C., d 21): 0%; SEC % LMW ([4]; pH 6, 40° C., d 21): 1%; SEC % HMW ([4]; pH 6, d 0): 0%; SEC % LMW ([4]; pH 6, d 0): 0%; SEC % HMW ([4]; pH 8, 40° C., d 21): 1%; SEC % LMW ([4]; pH 8, 40° C., d 21): 3%; SEC % HMW ([4]; pH 8, d 0): 2%; SEC % LMW ([4]; pH 8, d 0): 0%; Homogeneity cGE % Monomer [5]: 66% |
| Ab0331: IgG4 PE; 16H7 VL (N25S, D49S, D50E, D91E, N93E); 16H7 VH (M34V, I83T, D109E); HC SEQ ID NO: 38, LC SEQ ID NO: 45 | 3.49 | 14.9 | 73 | 5 | 6.9 | 59 | 5 | 73 | 5 | 57 | 4 | 73 | 5 | 14 | 6 | 72 | 5 | 1 | 0 | 1 | SEC % LMW ([4]; pH 5, d 0): 0%; SEC % HMW ([4]; pH 6, 40° C., d 21): 0%; SEC % LMW ([4]; pH 6, 40° C., d 21): 0%; SEC % HMW ([4]; pH 6, d 0): 1%; SEC % LMW ([4]; pH 6, d 0): 0%; SEC % HMW ([4]; pH 8, 40° C., d 21): 1%; SEC % LMW ([4]; pH 8, 40° C., d 21): 1%; SEC % HMW ([4]; pH 8, d 0): 2%; SEC % LMW ([4]; pH 8, d 0): 0%; Homogeneity cGE % Monomer [5]: 77% |
| Ab0351: IgG4 PE; 16H7 VL (N25S, D49E, D50E, D91E, N93E); 16H7 VH (M34V, I83T, D109E); HC SEQ ID NO: 40, LC SEQ ID NO: 47 |  | 14.2 | 72.6 | 4 | 6.7 | 59 | 5 | 72 | 4 | 58 | 4 | 73 | 4 | 15 | 5 | 71 | 4 | 1 | 0 | 2 | SEC % LMW ([4]; pH 5, d 0): 0%; SEC % HMW ([4]; pH 6, 40° C., d 21): 1%; SEC % LMW ([4]; pH 6, 40° C., d 21): 0%; SEC % HMW ([4]; pH 6, d 0): 0%; SEC % LMW ([4]; pH 6, d 0): 0%; SEC % HMW ([4]; pH 8, 40° C., d 21): 2%; SEC % LMW ([4]; pH 8, 40° C., d 21): 1%; SEC % HMW ([4]; pH 8, d 0): 1%; SEC % LMW ([4]; pH 8, d 0): 0%; Homogeneity cGE % Monomer [5]: 83% |
| Ab0335: IgG4 PE; 16H7 VL (N25S, D49S, D50A, D91E, N93E); 16H7 VH (M34V, I83T, D109E); HC SEQ ID NO: 39, LC SEQ ID NO: 46 | 2.95 |  | 71.4 | 4 | 7.1 | 59 | 4 | 70 | 5 | 59 | 4 | 71 | 4 | 12 | 5 | 68 | 5 | 0 | 0 | 1 | t½ calculated with compartment model ([1]; compartment model): 300* h; SEC % LMW ([4]; pH 5, d 0): 0%; SEC % HMW ([4]; pH 6, 40° C., d 21): 0%; SEC % LMW ([4]; pH 6, 40° C., d 21): 0%; SEC % HMW ([4]; pH 6, d 0): 1%; SEC % LMW ([4]; pH 6, d 0): 0%; SEC % HMW ([4]; pH 8, 40° C., d 21): 5%; SEC % LMW ([4]; pH 8, 40° C., d 21): 1%; SEC % HMW ([4]; pH 8, d 0): 2%; SEC % LMW ([4]; pH 8, d 0): 0%; Homogeneity cGE % Monomer [5]: 79% |

The next lines start with results.

| Kd [2] [nM] | Substance | t½ [1] [days] | Charge homogeneity cIEF % main peak [3] [%] | Charge homogeneity cIEF Number of peaks [3] | Charge homogeneity cIEF pI [3] | cIEF % Main peak ([3]; pH 5, 40° C., d 21) [%] | cIEF Number of peaks ([3]; pH 5, 40° C., d 21) | cIEF % Main peak ([3]; pH 5, d 0) [%] | cIEF Number of peaks ([3]; pH 5, d 0) | cIEF % Main peak ([3]; pH 6, 40° C., d 21) [%] | cIEF Number of peaks ([3]; pH 6, 40° C., d 21) | cIEF % Main peak ([3]; pH 6, d 0) [%] | cIEF Number of peaks ([3]; pH 6, d 0) | cIEF % Main peak ([3]; pH 8, 40° C., d 21) [%] | cIEF Number of peaks ([3]; pH 8, 40° C., d 21) | cIEF % Main peak ([3]; pH 8, d 0) [%] | cIEF Number of peaks ([3]; pH 8, d 0) | SEC % HMW ([4]; pH 5, 40° C., d 21) [%] | SEC % LMW ([4]; pH 5, 40° C., d 21) [%] | SEC % HMW ([4]; pH 5, d 0) [%] | also measured |
| --- | --- | --- | --- | --- | --- | --- | --- | --- | --- | --- | --- | --- | --- | --- | --- | --- | --- | --- | --- | --- | --- |
| 2.54 | Ab0428: IgG1 NNAS; 16H7 VL (N25S, D49S, D50E, D91E, N93E); 16H7 VH (M34V, I83T, D109E); HC SEQ ID NO: 41, LC SEQ ID NO: 48 | 13.8 | 20.4 | 8 | 7.3-8.0 | 15 | 8 | 21 | 8 | 21 | 8 | 20 | 8 | 11 | 9 | 21 | 9 | 1 | 2 | 2 | SEC % LMW ([4]; pH 5, d 0): 0%; SEC % HMW ([4]; pH 6, 40° C., d 21): 0%; SEC % LMW ([4]; pH 6, 40° C., d 21): 2%; SEC % HMW ([4]; pH 6, d 0): 1%; SEC % LMW ([4]; pH 6, d 0): 0%; SEC % HMW ([4]; pH 8, 40° C., d 21): 1%; SEC % LMW ([4]; pH 8, 40° C., d 21): 3%; SEC % HMW ([4]; pH 8, d 0): 1%; SEC % LMW ([4]; pH 8, d 0): 0%; Homogeneity cGE % Monomer [5]: 71% |
| 0.428 | 16H7: anti FGFR1c/KLB monoclonal antibody of WO 2011/071783, IgG2 backbone; HC SEQ ID NO: 1, LC SEQ ID NO: 2 [Ab 16H7] | 13 |  |  |  |  |  |  |  |  |  |  |  |  |  |  |  |  |  |  |  |
| 2.96 | Ab0430: IgG1 NNAS; 16H7 VL (N25S, D49E, D50E, D91E, N93E); 16H7 VH (M34V, I83T, D109E); HC SEQ ID NO: 43, LC SEQ ID NO: 50 | 15.7 | 21.7 | 8 | 7.2-7.9 | 21 | 8 | 22 | 9 | 20 | 9 | 22 | 8 | 4.4 | 11 | 22 | 9 | 1 | 2 | 1 | SEC % LMW ([4]; pH 5, d 0): 0%; SEC % HMW ([4]; pH 6, 40° C., d 21): 0%; SEC % LMW ([4]; pH 6, 40° C., d 21): 2%; SEC % HMW ([4]; pH 6, d 0): 1%; SEC % LMW ([4]; pH 6, d 0): 0%; SEC % HMW ([4]; pH 8, 40° C., d 21): 1%; SEC % LMW ([4]; pH 8, 40° C., d 21): 4%; SEC % HMW ([4]; pH 8, d 0): 2%; SEC % LMW ([4]; pH 8, d 0): 0%; Homogeneity cGE % Monomer [5]: 62% |
